From paper PMC12207370, “Macrocyclic Peptide Probes for Immunomodulatory Protein CD59: Potent Modulators of Bacterial Toxin Activity and Antibody‐Dependent Cytotoxicity” (Angewandte Chemie (International Ed. in English), 2025) come the findings set out here.

This assay addresses T1, biotinylated CD59 (Homo sapiens, UniProt P13987).
T1 construct: Recombinant soluble human CD59 with an additional C-terminal cysteine residue
T1 sequence (P13987 26-102 limits assumed): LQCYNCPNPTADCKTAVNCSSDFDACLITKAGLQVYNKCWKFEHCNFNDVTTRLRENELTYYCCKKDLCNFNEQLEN
Put plainly: mRNA-display cyclic peptide screen against CD59-biotin, NGS abundance after 6th selection round. To be noted: for Counts (raw counts for peptide sequence), Seq I: NGS sample Seq I; for Counts (raw counts for peptide sequence), Seq I / Counts (raw counts for peptide sequence), Seq II / Counts Seq I / Counts Seq II: sheet R6 (6th selection round); for Counts (raw counts for peptide sequence), Seq II: NGS sample Seq II; for Percentage of the pool, averaged across the two sequencing samples: average of Seq I and Seq II; for Percentage of the pool, averaged across the two sequencing samples / Percentage of the pool, Seq I / Percentage of the pool, Seq II / Percentage Seq I / Percentage Seq II / Percentage Average: sheet R6; for Percentage of the pool, Seq I: counts normalised by total counts of NGS sample Seq I; for Percentage of the pool, Seq II: counts normalised by total counts of NGS sample Seq II; for Percentage Seq I: counts normalised by total counts of sample Seq I; for Percentage Seq I / Percentage Seq II: percentage of the pool; for Percentage Seq II: counts normalised by total counts of sample Seq II; for Percentage Average: percentage of the pool averaged across the two sequencing samples; for Counts Seq I / Counts Seq II: raw NGS counts of peptide sequence; for Counts Seq I: sequencing sample Seq I; for Counts Seq II: sequencing sample Seq II. The essentials:
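Peptide–mRNA fusions were made by in vitro translation with a customised PURE express kit. The kit lacked release factor 1 and methionine and was supplemented with […] initiator tRNA carrying N-chloroacetyl-d-tyrosine. Thioether macrocycles were formed, then enriched and amplified over iterative rounds on CD59-biotin immobilised on streptavidin beads. NGS read counts per sequence were recorded after the 6th selection round.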

For VYGSRYASIPFC, the “Counts (raw counts for peptide sequence), Seq I” value was 45; the “Counts (raw counts for peptide sequence), Seq II” value stood at 9; the “Percentage of the pool, averaged across the two sequencing samples” value was 0.016%; the “Percentage of the pool, Seq I” value stood at 0.010%. The “Percentage of the pool, Seq II” value stood at 0.021%.

For the sequence CLRLHREPGSL, the “Percentage Seq I” value came out at 0.103%, the “Percentage Seq II” value worked out at 0.135%, the “Percentage Average” value is 0.119% and the “Counts Seq I” value stood at 449. For the same sequence, the “Counts Seq II” value is reported as 58.

On to IATGSKLYAKG, for which the “Percentage Seq I” value is listed as 0.033%, the “Percentage Seq II” value was found to be 0.046%, the “Percentage Average” value stood at 0.040% and the “Counts Seq I” value was 145. The “Counts Seq II” value worked out at 20.

With CFAARLSNGDT, the “Counts (raw counts for peptide sequence), Seq I” value is listed as 73; the “Counts (raw counts for peptide sequence), Seq II” value came to 7; the “Percentage of the pool, averaged across the two sequencing samples” value was found to be 0.016%; the “Percentage of the pool, Seq I” value is 0.017%. Also, the “Percentage of the pool, Seq II” value is listed as 0.016%.

STWGNRNETRG: the “Percentage Seq I” value stood at 0.029%, the “Percentage Seq II” value was 0.026%, the “Percentage Average” value is on record as 0.028% and the “Counts Seq I” value came out at 129. In addition, the “Counts Seq II” value is reported as 11.

For TFAHRVGSCQST, the “Percentage Seq I” value stood at 0.019%, the “Percentage Seq II” value was determined as 0.026%, the “Percentage Average” value worked out at 0.022% and the “Counts Seq I” value is reported as 85. Moreover, the “Counts Seq II” value was 11.

For YVYGSRDRCWG, the “Percentage Seq I” value was determined as 0.445%, the “Percentage Seq II” value is 0.441%, the “Percentage Average” value came to 0.443% and the “Counts Seq I” value turned out to be 1946. Moreover, the “Counts Seq II” value was found to be 190.

For the sequence VVHGGKDYQWS, the “Counts (raw counts for peptide sequence), Seq I” value is 64; the “Counts (raw counts for peptide sequence), Seq II” value came out at 5; the “Percentage of the pool, averaged across the two sequencing samples” value is listed as 0.013%; the “Percentage of the pool, Seq I” value was found to be 0.015%. The “Percentage of the pool, Seq II” value came to 0.012%.

For FVTGNRDHTRG, the “Percentage Seq I” value turned out to be 7.311%, the “Percentage Seq II” value came to 7.094%, the “Percentage Average” value came to 7.203% and the “Counts Seq I” value worked out at 31986. Moreover, the “Counts Seq II” value turned out to be 3057.

As for EIRGALNWVRG, the “Percentage Seq I” value was determined as 0.125%, the “Percentage Seq II” value is reported as 0.146%, the “Percentage Average” value was found to be 0.136% and the “Counts Seq I” value was 549. For the same sequence, the “Counts Seq II” value was 63.

Take SIRGGRDYTRG: the “Percentage Seq I” value worked out at 0.110%, the “Percentage Seq II” value worked out at 0.128%, the “Percentage Average” value stood at 0.119% and the “Counts Seq I” value amounted to 482. Further, the “Counts Seq II” value turned out to be 55.

For the sequence CFKKRLDTVST, the “Percentage Seq I” value is reported as 0.021%, the “Percentage Seq II” value came out at 0.016%, the “Percentage Average” value amounted to 0.019% and the “Counts Seq I” value was found to be 91. The “Counts Seq II” value is on record as 7.

As to CFARRLSASLGT, the “Percentage Seq I” value came to 0.033%, the “Percentage Seq II” value worked out at 0.021%, the “Percentage Average” value is recorded as 0.027% and the “Counts Seq I” value is recorded as 145. In addition, the “Counts Seq II” value came to 9.

Take SWTWGDRSSVRG: the “Percentage Seq I” value is listed as 0.016%, the “Percentage Seq II” value was 0.023%, the “Percentage Average” value worked out at 0.020% and the “Counts Seq I” value is 71. The “Counts Seq II” value is listed as 10.

CFAYRTHTTAV: the “Counts (raw counts for peptide sequence), Seq I” value came to 63; the “Counts (raw counts for peptide sequence), Seq II” value was found to be 6; the “Percentage of the pool, averaged across the two sequencing samples” value is reported as 0.014%; the “Percentage of the pool, Seq I” value is 0.014%. Besides, the “Percentage of the pool, Seq II” value was 0.014%.

With LWGTHSYIYYRP, the “Percentage Seq I” value is 0.482%, the “Percentage Seq II” value is listed as 0.490%, the “Percentage Average” value was found to be 0.486% and the “Counts Seq I” value was found to be 2109. In addition, the “Counts Seq II” value was found to be 211.

With WTCHLRHDGPHA, the “Percentage Seq I” value is given as 1.997%, the “Percentage Seq II” value worked out at 2.114%, the “Percentage Average” value is on record as 2.056% and the “Counts Seq I” value was determined as 8737. The “Counts Seq II” value amounted to 911.

On to IARGGRHFSSG, for which the “Counts (raw counts for peptide sequence), Seq I” value came out at 46; the “Counts (raw counts for peptide sequence), Seq II” value amounted to 4; the “Percentage of the pool, averaged across the two sequencing samples” value is 0.010%; the “Percentage of the pool, Seq I” value came to 0.011%. Also, the “Percentage of the pool, Seq II” value came out at 0.009%.

On to SAWGNWQIQYY, for which the “Percentage Seq I” value turned out to be 0.023%, the “Percentage Seq II” value was determined as 0.030%, the “Percentage Average” value stood at 0.027% and the “Counts Seq I” value was 102. Also, the “Counts Seq II” value is 13.

As to CIRGTPTTVWG, the “Percentage Seq I” value amounted to 0.387%, the “Percentage Seq II” value is on record as 0.362%, the “Percentage Average” value stood at 0.374% and the “Counts Seq I” value stood at 1692. Moreover, the “Counts Seq II” value turned out to be 156.

NTAWGNVAVAYF: the “Percentage Seq I” value stood at 0.042%, the “Percentage Seq II” value came out at 0.030%, the “Percentage Average” value is given as 0.036% and the “Counts Seq I” value worked out at 183. Besides, the “Counts Seq II” value is recorded as 13.

Turning to CFVNRLSDSLSL, the “Percentage Seq I” value was found to be 0.048%, the “Percentage Seq II” value is 0.070%, the “Percentage Average” value is recorded as 0.059% and the “Counts Seq I” value turned out to be 212. For the same sequence, the “Counts Seq II” value is listed as 30.

In the case of CFSKRIAPGAQ, the “Percentage Seq I” value worked out at 0.020%, the “Percentage Seq II” value turned out to be 0.019%, the “Percentage Average” value is recorded as 0.019% and the “Counts Seq I” value is 88. Also, the “Counts Seq II” value worked out at 8.

Regarding CFLNRASFSGI, the “Counts (raw counts for peptide sequence), Seq I” value worked out at 60; the “Counts (raw counts for peptide sequence), Seq II” value worked out at 6; the “Percentage of the pool, averaged across the two sequencing samples” value was 0.014%; the “Percentage of the pool, Seq I” value was determined as 0.014%. The “Percentage of the pool, Seq II” value was found to be 0.014%.

As to FTRGNSTSVLF, the “Counts (raw counts for peptide sequence), Seq I” value amounted to 51; the “Counts (raw counts for peptide sequence), Seq II” value came out at 7; the “Percentage of the pool, averaged across the two sequencing samples” value came to 0.014%; the “Percentage of the pool, Seq I” value is reported as 0.012%. In addition, the “Percentage of the pool, Seq II” value was determined as 0.016%.

As to YVTGNRDHTRG, the “Counts (raw counts for peptide sequence), Seq I” value is given as 66; the “Counts (raw counts for peptide sequence), Seq II” value came out at 8; the “Percentage of the pool, averaged across the two sequencing samples” value is recorded as 0.017%; the “Percentage of the pool, Seq I” value stood at 0.015%. Moreover, the “Percentage of the pool, Seq II” value is on record as 0.019%.

Regarding YCWVRGSRNYT, the “Percentage Seq I” value worked out at 0.064%, the “Percentage Seq II” value was 0.060%, the “Percentage Average” value came out at 0.062% and the “Counts Seq I” value worked out at 279. For the same sequence, the “Counts Seq II” value is 26.

As to LLGARDYVRLWH, the “Counts (raw counts for peptide sequence), Seq I” value was 41; the “Counts (raw counts for peptide sequence), Seq II” value turned out to be 7; the “Percentage of the pool, averaged across the two sequencing samples” value amounted to 0.013%; the “Percentage of the pool, Seq I” value is 0.009%. Moreover, the “Percentage of the pool, Seq II” value was 0.016%.

Regarding LYGNRDYSFYRP, the “Percentage Seq I” value stood at 0.162%, the “Percentage Seq II” value came out at 0.169%, the “Percentage Average” value was 0.166% and the “Counts Seq I” value stood at 707. Also, the “Counts Seq II” value was 73.

Turning to CFRYRLGLTST, the “Percentage Seq I” value amounted to 0.062%, the “Percentage Seq II” value turned out to be 0.058%, the “Percentage Average” value is 0.060% and the “Counts Seq I” value is given as 271. Besides, the “Counts Seq II” value came out at 25.

In the case of SWTWGNRSTVRG, the “Percentage Seq I” value was 0.011%, the “Percentage Seq II” value amounted to 0.026%, the “Percentage Average” value is recorded as 0.018% and the “Counts Seq I” value is 49. Also, the “Counts Seq II” value is listed as 11.

In the case of IALGDRTFSFG, the “Percentage Seq I” value stood at 0.366%, the “Percentage Seq II” value is recorded as 0.334%, the “Percentage Average” value was found to be 0.350% and the “Counts Seq I” value was found to be 1603. Also, the “Counts Seq II” value was 144.

For the sequence YARGNNASQFF, the “Percentage Seq I” value came out at 0.089%, the “Percentage Seq II” value amounted to 0.088%, the “Percentage Average” value turned out to be 0.089% and the “Counts Seq I” value stood at 391. Besides, the “Counts Seq II” value was 38.

For SSWAQLPCRR, the “Percentage Seq I” value was determined as 0.066%, the “Percentage Seq II” value came to 0.070%, the “Percentage Average” value is on record as 0.068% and the “Counts Seq I” value is 289. Further, the “Counts Seq II” value was 30.

With WIRGSRFYRVI, the “Percentage Seq I” value is listed as 0.387%, the “Percentage Seq II” value came out at 0.334%, the “Percentage Average” value is 0.360% and the “Counts Seq I” value amounted to 1692. In addition, the “Counts Seq II” value worked out at 144.
